# T1: cynomolgus monkey PVRIG on FlpinCHO-cyno PVRIG cells (cynomolgus monkey, UniProt A0A2K5WVV8 41-322)
# T1 construct: whole, on cells
# T1 sequence: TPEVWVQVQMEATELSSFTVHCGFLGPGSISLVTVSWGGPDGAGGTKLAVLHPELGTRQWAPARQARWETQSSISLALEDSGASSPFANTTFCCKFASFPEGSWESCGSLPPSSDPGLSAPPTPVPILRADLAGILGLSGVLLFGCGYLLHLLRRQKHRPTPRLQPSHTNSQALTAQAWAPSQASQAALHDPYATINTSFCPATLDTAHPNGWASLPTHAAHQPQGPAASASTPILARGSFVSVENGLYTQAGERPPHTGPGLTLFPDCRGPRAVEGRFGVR
# T2: cynomolgus monkey PVRIG (Novoprotein, Cat NO. C09B) (cynomolgus monkey, UniProt A0A2K5WVV8 41-171)
# T2 construct: Bought reagent; also called cynomolgus monkey PVRIG protein
# T2 sequence: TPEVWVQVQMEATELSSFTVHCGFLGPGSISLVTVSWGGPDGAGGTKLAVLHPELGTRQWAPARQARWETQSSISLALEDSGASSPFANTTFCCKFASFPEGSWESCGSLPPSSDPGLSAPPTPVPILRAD
# T3: human PVRIG on FlpinCHO-PVRIG cells (human, UniProt Q6DKI7 41-326)
# T3 construct: whole, on cells
# T3 sequence (looked up): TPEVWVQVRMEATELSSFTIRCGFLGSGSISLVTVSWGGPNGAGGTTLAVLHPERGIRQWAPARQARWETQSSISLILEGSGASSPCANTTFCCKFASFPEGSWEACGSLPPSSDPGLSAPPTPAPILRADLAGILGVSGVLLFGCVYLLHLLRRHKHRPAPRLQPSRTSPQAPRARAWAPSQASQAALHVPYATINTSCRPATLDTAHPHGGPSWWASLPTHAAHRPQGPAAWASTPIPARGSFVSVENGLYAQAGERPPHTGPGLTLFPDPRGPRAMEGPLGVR
# T4: human PVRIG-his (AcroBiosystems, Cat NO. PVG-H52H4) (human, UniProt Q6DKI7 41-171, limits assumed)
# T4 construct: Bought reagent; also called human PVRIG protein
# T4 sequence (looked up): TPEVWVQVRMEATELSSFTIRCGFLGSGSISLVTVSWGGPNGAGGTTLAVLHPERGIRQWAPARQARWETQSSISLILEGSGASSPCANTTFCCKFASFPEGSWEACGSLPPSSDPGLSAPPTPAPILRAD
# B1: PVRIG-A113 (Fc fusion)
# chain: QLQLVESGGGLVQSGGSLRLSCAASGRTRSMYVMGWFRQAPGKEREFVGRIKWSGDTTYTSYADFVKGRFTLYGNQARNTVYLQMNSLKPEDTAVYYCAALPSDYDYRAASYGVDYWGKGTLVTVSS
# notes: Alpaca VHH joined to human IgG1 Fc (VHH-hinge-CH2-CH3); not shown: human IgG1 hinge-CH2-CH3
# B2: PVRIG-A30 (Fc fusion)
# chain: QVQLVESGGGLVQPGGSLRLSCAASGRTDSMNVMGWFRRAPGKEREFVARIKWNGDTTYTAYADFLKGRFTLYGAVARNRVYLQMNSLQPEDTAVYYCAAGEVSGSSYSPDYGMHYWGKGTLVTVSS
# notes: as for B1
# B3: PVRIG-A60 (Fc fusion)
# chain: QVQLVESGGGLVQSGGSLRLSCAASGRTRSMYVMGWFRQAPGKEREFVGRIKWSGDTTYTSYADFVKGRFTLYGNQARNTVYLQMNSLKPEDAAVYYCNLRRLDGVNYWGKGTLVTVSS
# notes: as for B1
# B4: PVRIG-A117 (Fc fusion)
# chain: EVQVVESGGGLVQAGGSLRLSCTASEHIYDLYIMGWYRQAPGKDRELVATITYTGSIYIADSVKDRFTISRGNAKNTVSLQMSGLKPEDTAVYYCNADPSGLGRKLYWGQGTQVTVSS
# notes: as for B1
# B5: PVRIG-A75 (Fc fusion)
# chain: QLQLVESGGGLVQSGGSLRLSCAASGRTRSMYVMGWFRQAPGKEREFVGRIKWSGDTTYTSYADFVKGRFTLYGNQARNTVYLQMNSLKPEDTAVYSCAASKFPVSGVPEHYDYWGQGTQVTVSS
# notes: as for B1
# B6: PVRIG-A105 (Fc fusion)
# chain: EVQLVESGGGLVQAGGSLRLSCAASGRTFDRHTMTWFRQAPGKEREFVATASRIPGDTYYSHSVKGRFTISRDNAKNTVYLQLNNLKPEDTAVYYCAATSAYCSEVDCYEKGSWYDNWGQGIQVTVSS
# notes: as for B1
# B7: PVRIG-A15 (Fc fusion)
# chain: QVQLVESGGGLVQAGGSLRLSCVASGRTFSANTMAWFRQAPGKEREFVAYTRWTDDNTDYASYADFVKGRFTAFRDNTRNTMYLQMNRLRPEDTAVYYCAAATTRGTYYSAGDYNSWGQGTQVTVSS
# notes: as for B1
# B8: PVRIG-A35 (Fc fusion)
# chain: EVQVVESGGGLVQSGGSLRLSCAASGRTRSMYVMGWFRQAPGKEREFVGRIKWSGDTTYTSYADFVKGRFTLYGNQARNTVYLQMNSLKPEDTAVYYCNGRSRFNVINAWGTGTLVTVAS
# notes: as for B1
# B9: PVRIG-A118 (Fc fusion)
# chain: QVQLVESGGGLVQAGGSLRLSCAASETYFDLYVMGWYRQAPGKDRELVATITYTGSIKIVDSVKDRFTISRGDAKNTVSLQMSSLKPEDTAVYFCNADPSGLGRKVYWGQGTQVTVSS
# notes: as for B1
# B10: PVRIG-A50 (Fc fusion)
# chain: EVQLVESGGGLVQPGGSLRLSCAASGFTFSYYDMSWVRQAPGKGLEWVSTINSNGGRTSYVDSVKGRFTISRDNTKNTLYLQMNSLKPEDTAVYYCVEGDPHNFGLENLSLRDFGSWGQGTQVTVSS
# notes: as for B1
# How the values were obtained:
# [1] = target: T1, cynomolgus monkey PVRIG on …; assay: FACS, FlpinCHO-cyno PVRIG cells; AUC of MFI curve relative to COM701-hIgG1
# Protocol: (§1) The Ham's F12 (Gibico, 21127-022) complete medium containing 10% FBS was then added to terminate the digestion and acquire cell suspension. After counting with a cell counter (Beckman Coulter, Vi-CELL), an appropriate amount of cell suspension was centrifuged at 350×g to remove the supernatant, washed twice with PBS, stained with Zombie violet (Biolegend, 423114) and incubated at room temperature for 20 minutes. After incubation, the cells were added with staining buffer (2% FBS+PBS) to stop staining, centrifuged at 350×g to remove the supernatant, washed twice and resuspended with staining buffer to a density of 2×10⁶ cells/mL. The cells were plated into a 96-well plate (50 μL of cell suspension per well) for further use. The antibodies were diluted from the highest concentration of 46 nM (two-fold concentration) with staining buffer by 3.3-fold serial dilution. The diluted antibodies were added to the well containing 50 μL of cell suspension. The plate was placed on a microplate shaker at 400 rpm for 1 minute to fully mix the antibodies and cells, and then incubated at 4° C. for 30 minutes. After the incubation, the cells were washed twice with staining buffer (200 μL per well) and centrifuged at 350×g for 5 minutes to discard the supernatant. The PE goat anti-human IgG Fc antibody (ebioscience, 12-4998-82) was diluted 250 times with staining buffer, added into the washed wells (100 μL per well), mixed well, and stained at 4° C. for 30 minutes. After staining, the cells were washed twice with staining buffer, finally resuspended with 200 μL staining buffer and analyzed by flow cytometry (BD, Canto II). The stronger the signal, the stronger the ability of the antibodies binds to PVRIG. An antibody binding curve was drawn with concentration of antibodies as the abscissa and the corresponding Mean Fluorescence Intensity (MFI) as the ordinate. The AUC value of the curve was calculated by using a Four Parameter Logistic Fit (GraphPadPrism9). The stronger the AUC value, the stronger the ability of the antibodies binds to FlpinCHO-PVRIG and FlpinCHO-cyno PVRIG. […] The binding activity of the antibodies was normalized to the positive control COM701-hIgG1 and SRF813-hIgG1.
# [2] = target: T1, cynomolgus monkey PVRIG on …; assay: FACS, FlpinCHO-cyno PVRIG cells; AUC of MFI curve relative to SRF813-hIgG1
# Protocol: as §1
# [3] = target: T2, cynomolgus monkey PVRIG (Novoprotein, …); assay: ELISA, coated cynomolgus monkey PVRIG
# Protocol: (§2) The ELISA plate was pre-coated with 100 μL/well of 0.5 μg/mL human PVRIG-his (AcroBiosystems, Cat NO. PVG-H52H4) or cynomolgus monkey PVRIG (Novoprotein, Cat NO. C09B). […] A HRP substrate, TMB (Thermo, Cat NO. 34029) was added into wells after washing the plate again for color development. After adding a termination solution to terminate the reaction, the absorbance value was read by a microplate reader (MD i3×). An antibody binding curve was drawn with concentration of antibodies as the abscissa and the corresponding OD value as the ordinate. The EC50 value was calculated by using a Four Parameter Logistic Fit (GraphPadPrism9). The smaller the EC50 value, the stronger the ability of the antibodies binds to human or cynomolgus monkey PVRIG. The positive control antibodies are COM701-hIgG1 (Patent No.:US20180244774A1), COM701-hIgG4 (patent No.: US20180244774A1) and SRF813-hIgG1 (Patent No.:US20200040081A1); and the negative control antibodies are anti-HA HcAb-hIgG1 (Chengdu NB Biolab, Cat NO. NBR022), anti-CD38 HcAb-hIgG1 (in-house) and anti-Fluorescein-hIgG1 (in house).
# [4] = target: T3, human PVRIG on FlpinCHO-PVRIG cells; assay: FACS, FlpinCHO-PVRIG cells; AUC of MFI curve relative to SRF813-hIgG1
# Protocol: as §1
# [5] = target: T4, human PVRIG-his (AcroBiosystems, Cat …); assay: ELISA, coated human PVRIG-his
# Protocol: as §2
# [6] = target: T3, human PVRIG on FlpinCHO-PVRIG cells; assay: FACS, FlpinCHO-PVRIG cells; AUC of MFI curve relative to COM701-hIgG1
# Protocol: as §1
Binder,% AUC to COM701-hIgG1 [1] [%],% AUC to SRF813-hIgG1 [2] [%],EC50 [3] [pM],% AUC to SRF813-hIgG1 [4] [%],EC50 [5] [pM],% AUC to COM701-hIgG1 [6] [%]
B1,38.6,52.7,44.3,57.4,92,42.4
B2,28.7,33.8,93,34.4,255,29.3
B3,63.4,82.9,34.3,68.6,55.7,63.3
B4,128,174,41.8,181,52.8,133
B5,47.6,62.4,28.8,54.5,62.1,50.6
B6,122,157,19.2,162,57.1,123
B7,24.8,29.1,129,42.7,208,36.3
B8,19.3,25.3,28.8,134,54.3,122
B9,66.4,80.4,34.1,232,51.4,153
B10,59.3,69.7,53.4,115,196,89.5

# Source: patent publication US20240343803A1 (SHANDONG SIMCERE BIOPHARMACEUTICAL, published 2024)
